Here are results for 24 variants from the supplement of paper PMC7125110.

± gives the standard error. Fewer inactive variants are shown than the library holds.

First the molecules themselves.
B1: glmS ribozyme (parent)
chain: AUAAAAGCGCCAGAACUACAGAAAUGUAGUUGACGAGGAGGAGGUUUAUCGAAUUUUCGGCGGAUGCCUCCAAA

Holding throughout (settings): with glucosamine-6-phosphate
In series [1] the parent is B1. As to the kind of experiment: self-cleavage kobs at 40 uM GlcN6P; higher = faster cleavage; RNA array. In outline:
(§1)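 Barcoded ribozyme variants, transcribed in situ by E. coli RNA polymerase on sequenced MiSeq chips, were followed via a hybridised Cy3 probe at 37 °C. Glucosamine-6-phosphate ranged from 40 μM to 10 mM in HEPES/KCl/Mg(OAc)2 buffer. kobs came from decay fits to per-tile medians, and kcat and KM from weighted Michaelis–Menten fits.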

Series [2] covers variants of B1. As to the kind of experiment: self-cleavage kobs at 160 uM GlcN6P; higher = faster cleavage; RNA array. In outline:
as §1

Variants of B1 are the subject of series [3]. As to the kind of experiment: self-cleavage kobs at 640 uM GlcN6P; higher = faster cleavage; RNA array. The procedure, abridged: as §1
Variants of B1 are the subject of series [4]. Nature of the series: self-cleavage kobs at 2500 uM GlcN6P; higher = faster cleavage; RNA array. In outline:
as §1

The variants in series [5] derive from B1. Nature of the series: self-cleavage kobs at 10000 uM GlcN6P; higher = faster cleavage; RNA array. The procedure, abridged: as §1

As for AUAAAAGCGCGAGAACUACAGAAAUGUAGUUGACGAGGAGGAGGUUUAUCGCAUUUUCGGCGGAUGCCUCCAAA, the “self-cleavage kobs at 40 uM GlcN6P” value with glucosamine-6-phosphate [1] is less than 1e-05 s⁻¹. Moreover, the “self-cleavage kobs at 160 uM GlcN6P” value with glucosamine-6-phosphate [2] is less than 1e-05 s⁻¹. Moreover, in the series with glucosamine-6-phosphate [3], the “self-cleavage kobs at 640 uM GlcN6P” value is less than 1e-05 s⁻¹. The “self-cleavage kobs at 2500 uM GlcN6P” value with glucosamine-6-phosphate [4] was less than 1e-05 s⁻¹. The “self-cleavage kobs at 10000 uM GlcN6P” value with glucosamine-6-phosphate [5] is less than 1e-05 s⁻¹.
For the variant AUAAAAGCGCCAGAACUACAGAAAUGUAGUUGACGAGGAGGAGGUUUAUCGUAUUUUCGGCAGAUGCCUCCAAA, the “self-cleavage kobs at 40 uM GlcN6P” value with glucosamine-6-phosphate [1] was less than 1e-05 s⁻¹. The “self-cleavage kobs at 640 uM GlcN6P” value in the series with glucosamine-6-phosphate [3] was less than 1e-05 s⁻¹. Also, in the series with glucosamine-6-phosphate [4], the “self-cleavage kobs at 2500 uM GlcN6P” value is less than 1e-05 s⁻¹. Further, the “self-cleavage kobs at 10000 uM GlcN6P” value with glucosamine-6-phosphate [5] is less than 1e-05 s⁻¹.
As to AUAAAAGCGCCAGAACUACAGAAAUGUAGUUGACGAGGAUGAGGUUUAUCGAAUUUUCGGCGAAUGCCUCCAAA, in the series with glucosamine-6-phosphate [1], the “self-cleavage kobs at 40 uM GlcN6P” value was less than 1e-05 s⁻¹. Further, in the series with glucosamine-6-phosphate [2], the “self-cleavage kobs at 160 uM GlcN6P” value was less than 1e-05 s⁻¹. In addition, the “self-cleavage kobs at 640 uM GlcN6P” value in the series with glucosamine-6-phosphate [3] was less than 1e-05 s⁻¹. Besides, the “self-cleavage kobs at 2500 uM GlcN6P” value with glucosamine-6-phosphate [4] is less than 1e-05 s⁻¹. Further, in the series with glucosamine-6-phosphate [5], the “self-cleavage kobs at 10000 uM GlcN6P” value is less than 1e-05 s⁻¹.
On to AUAAACCCGCCAGAACUACAGAAAUGUAGUUGACGAGGAGGAGGUUUAUCGAAUUUUCGGCGGAUGCCUCCAAA, for which the “self-cleavage kobs at 40 uM GlcN6P” value with glucosamine-6-phosphate [1] is less than 1e-05 s⁻¹. In addition, the “self-cleavage kobs at 160 uM GlcN6P” value with glucosamine-6-phosphate [2] is less than 1e-05 s⁻¹. In the series with glucosamine-6-phosphate [3], the “self-cleavage kobs at 640 uM GlcN6P” value was less than 1e-05 s⁻¹. The “self-cleavage kobs at 2500 uM GlcN6P” value in the series with glucosamine-6-phosphate [4] was less than 1e-05 s⁻¹. Further, in the series with glucosamine-6-phosphate [5], the “self-cleavage kobs at 10000 uM GlcN6P” value was less than 1e-05 s⁻¹.
With AUAAAAGCGCCAGAACUACAGAAAUGUAGUUGACGAGGAGCAGGUUUAACGAAUUUUCGGCGGAUGCCUCCAAA, the “self-cleavage kobs at 40 uM GlcN6P” value with glucosamine-6-phosphate [1] was less than 1e-05 s⁻¹. Also, the “self-cleavage kobs at 160 uM GlcN6P” value with glucosamine-6-phosphate [2] is less than 1e-05 s⁻¹. In addition, the “self-cleavage kobs at 640 uM GlcN6P” value with glucosamine-6-phosphate [3] is less than 1e-05 s⁻¹. For the same variant, the “self-cleavage kobs at 2500 uM GlcN6P” value with glucosamine-6-phosphate [4] is less than 1e-05 s⁻¹.
Regarding AUAAAAGGGCCAGAACUACAGAAAUGUAGUUGACGAGGAGGAGGUUACUCGAAUUUUCGGCGGAUGCCUGCAAA, in the series with glucosamine-6-phosphate [1], the “self-cleavage kobs at 40 uM GlcN6P” value is less than 1e-05 s⁻¹. Also, the “self-cleavage kobs at 160 uM GlcN6P” value with glucosamine-6-phosphate [2] was less than 1e-05 s⁻¹. Besides, the “self-cleavage kobs at 640 uM GlcN6P” value in the series with glucosamine-6-phosphate [3] was less than 1e-05 s⁻¹. Also, the “self-cleavage kobs at 10000 uM GlcN6P” value with glucosamine-6-phosphate [5] was less than 1e-05 s⁻¹.
AUAAAAGCUCCGGAACUACAGAAAUGUAGUUUACGAGGAGGAUGAUUAUCGAAUUUUCGGCGGAUGCCUCCAAA: the “self-cleavage kobs at 40 uM GlcN6P” value with glucosamine-6-phosphate [1] was less than 1e-05 s⁻¹.
For the variant AUAAAGGCGCCAGAACUACAGAAAUGUAGUUGACGAGGAGGAGGUUUCUCGAAUUUUCGGCGGAUGCCUCCAAA, the “self-cleavage kobs at 40 uM GlcN6P” value with glucosamine-6-phosphate [1] is less than 1e-05 s⁻¹. Moreover, the “self-cleavage kobs at 640 uM GlcN6P” value with glucosamine-6-phosphate [3] was less than 1e-05 s⁻¹. In addition, in the series with glucosamine-6-phosphate [5], the “self-cleavage kobs at 10000 uM GlcN6P” value was less than 1e-05 s⁻¹.
On to AUAAAAGCGUGAGAACUACAGAAAUGUAGUUGACGAGGAGGACGUUUAUCGAAUUUUCAGCGGAUGCCUCCAAA, for which the “self-cleavage kobs at 40 uM GlcN6P” value in the series with glucosamine-6-phosphate [1] was less than 1e-05 s⁻¹. Further, the “self-cleavage kobs at 160 uM GlcN6P” value in the series with glucosamine-6-phosphate [2] is less than 1e-05 s⁻¹. The “self-cleavage kobs at 2500 uM GlcN6P” value in the series with glucosamine-6-phosphate [4] was less than 1e-05 s⁻¹.
In the case of AUAAAAGCUCCAGAACUACAGAAAUGUAGUUGACGAGGAGGAGGUUUAUCUAAUUUUCGGCGGAUGCCUCCAAA, in the series with glucosamine-6-phosphate [1], the “self-cleavage kobs at 40 uM GlcN6P” value was less than 1e-05 s⁻¹. Besides, the “self-cleavage kobs at 160 uM GlcN6P” value with glucosamine-6-phosphate [2] was less than 1e-05 s⁻¹. The “self-cleavage kobs at 640 uM GlcN6P” value in the series with glucosamine-6-phosphate [3] was less than 1e-05 s⁻¹. For the same variant, in the series with glucosamine-6-phosphate [5], the “self-cleavage kobs at 10000 uM GlcN6P” value is less than 1e-05 s⁻¹.
Take AUAAAAGCGCCAGAACUACAGAAAUGUAGUUGUCGAGGAGGAGGUUUGUCGAUUUUCCGGCGGAUGCCUCCAAA: in the series with glucosamine-6-phosphate [1], the “self-cleavage kobs at 40 uM GlcN6P” value was less than 1e-05 s⁻¹. The “self-cleavage kobs at 10000 uM GlcN6P” value with glucosamine-6-phosphate [5] was less than 1e-05 s⁻¹.
In the case of AUAAAAGCGCCAUAACUACAGAAAUGUAGUUGACGAGGAGGAGGUUUAUCUAAUUUUCGGCGGAUGCCUCCAAA, the “self-cleavage kobs at 40 uM GlcN6P” value in the series with glucosamine-6-phosphate [1] was less than 1e-05 s⁻¹. In addition, the “self-cleavage kobs at 160 uM GlcN6P” value with glucosamine-6-phosphate [2] is less than 1e-05 s⁻¹. Besides, the “self-cleavage kobs at 2500 uM GlcN6P” value in the series with glucosamine-6-phosphate [4] is less than 1e-05 s⁻¹. In addition, in the series with glucosamine-6-phosphate [5], the “self-cleavage kobs at 10000 uM GlcN6P” value was less than 1e-05 s⁻¹.
In the case of AUAAACGCGCCAGAACUACAGAAAUGUACUUGACGUGGAGGAGGUUUAUCGAAUUUUCGGUGGAUGCCUCCAAA, the “self-cleavage kobs at 40 uM GlcN6P” value in the series with glucosamine-6-phosphate [1] was less than 1e-05 s⁻¹. Besides, the “self-cleavage kobs at 2500 uM GlcN6P” value with glucosamine-6-phosphate [4] was less than 1e-05 s⁻¹. Also, the “self-cleavage kobs at 10000 uM GlcN6P” value with glucosamine-6-phosphate [5] was less than 1e-05 s⁻¹.
Regarding AUAAAAGCGCCAGGACUACAGAAAUGUAGUUGACGAGGAUGAGGUUUAUGGAAUUUUCGGCGGAUGCCUCCAAA, in the series with glucosamine-6-phosphate [1], the “self-cleavage kobs at 40 uM GlcN6P” value is less than 1e-05 s⁻¹.
For AUAAAAGCGCCAGAACUACAGAAAUGUAGGUGACGAGGAGGGGGUUUAUCGAAUGUUCGGCGGAUGCCUCCAAA, in the series with glucosamine-6-phosphate [1], the “self-cleavage kobs at 40 uM GlcN6P” value is 0.000185 ± 4.5e-05 s⁻¹. Further, the “self-cleavage kobs at 2500 uM GlcN6P” value with glucosamine-6-phosphate [4] is 0.0026 ± 0.00051 s⁻¹. Also, the “self-cleavage kobs at 10000 uM GlcN6P” value with glucosamine-6-phosphate [5] was 0.00677 ± 0.0014 s⁻¹.
Consider AUAAAAGCACCAGAACUACAGAAAUGUAGUUGACGAGGAGGAGGUUUAUCGAAUUUUCGGCGAAUGCCUCCAAA, for which the “self-cleavage kobs at 40 uM GlcN6P” value in the series with glucosamine-6-phosphate [1] was less than 1e-05 s⁻¹. In addition, in the series with glucosamine-6-phosphate [3], the “self-cleavage kobs at 640 uM GlcN6P” value is less than 1e-05 s⁻¹. The “self-cleavage kobs at 2500 uM GlcN6P” value with glucosamine-6-phosphate [4] was less than 1e-05 s⁻¹. For the same variant, the “self-cleavage kobs at 10000 uM GlcN6P” value in the series with glucosamine-6-phosphate [5] is less than 1e-05 s⁻¹.
Turning to AUAAAAGCGCCAGAACUACAGAAAUGUAGUUGAAGAGGAGGAGGUUUAUCGAAUUUUCGGCGUAUGCCUCCAAA, the “self-cleavage kobs at 40 uM GlcN6P” value with glucosamine-6-phosphate [1] was less than 1e-05 s⁻¹. The “self-cleavage kobs at 160 uM GlcN6P” value in the series with glucosamine-6-phosphate [2] was less than 1e-05 s⁻¹. Moreover, the “self-cleavage kobs at 640 uM GlcN6P” value in the series with glucosamine-6-phosphate [3] is less than 1e-05 s⁻¹. Also, the “self-cleavage kobs at 10000 uM GlcN6P” value with glucosamine-6-phosphate [5] was less than 1e-05 s⁻¹.
As to AUAAAAGCGCCAGAACUACAGAAAUGUAGUUGACGAGGAGGGGGUUUAUCGAAUUUUCGACGGAGGCCUCCAAA, the “self-cleavage kobs at 40 uM GlcN6P” value with glucosamine-6-phosphate [1] is less than 1e-05 s⁻¹. For the same variant, the “self-cleavage kobs at 2500 uM GlcN6P” value in the series with glucosamine-6-phosphate [4] was less than 1e-05 s⁻¹.
As to AUAAAAGCGCCAGAACUACAGAAAUGUAGUUGACGAAGAGGAGGUUUAUGGAAUUUUAGGCGGAUGACUCUAAA, the “self-cleavage kobs at 40 uM GlcN6P” value with glucosamine-6-phosphate [1] came to 4.39e-05 ± 1.4e-05 s⁻¹. Besides, the “self-cleavage kobs at 2500 uM GlcN6P” value with glucosamine-6-phosphate [4] amounted to 6.21e-05 ± 1.7e-05 s⁻¹.
Take AUAAAACCGCCAGAACUACAGAAAUGUAGUUGACGAGGACGAGGUUUAUCGAAUUUUCGGCGGAUGCCUCCAAA: the “self-cleavage kobs at 40 uM GlcN6P” value in the series with glucosamine-6-phosphate [1] is less than 1e-05 s⁻¹. In addition, in the series with glucosamine-6-phosphate [4], the “self-cleavage kobs at 2500 uM GlcN6P” value is less than 1e-05 s⁻¹. The “self-cleavage kobs at 10000 uM GlcN6P” value with glucosamine-6-phosphate [5] is less than 1e-05 s⁻¹.
AUAAAAGCGCCAGAACUACAGAAAUGUAGUUGACGAGGAGGAUGUUUAUGGAAGUUUCGGCGGUUGCCUCUAAA: the “self-cleavage kobs at 40 uM GlcN6P” value with glucosamine-6-phosphate [1] is 7.77e-05 ± 3e-05 s⁻¹. Besides, the “self-cleavage kobs at 10000 uM GlcN6P” value in the series with glucosamine-6-phosphate [5] was 0.00156 ± 0.00062 s⁻¹.
AUAAAACCGCCAGAACUACAGAAAUGUAUUUUACGAGGAGGAGGUUUAUCGAAUUUUCGGCGGCUGCCUCCAAA: the “self-cleavage kobs at 40 uM GlcN6P” value with glucosamine-6-phosphate [1] is less than 1e-05 s⁻¹.
As to AUAAAAGCGCCAGAACUACAGAAAUGUAGUUGACGAGUAGGAGGUGUAUCGAAUUUUCGGCGGAUGCCUCCAAA, the “self-cleavage kobs at 40 uM GlcN6P” value in the series with glucosamine-6-phosphate [1] was less than 1e-05 s⁻¹. Besides, the “self-cleavage kobs at 160 uM GlcN6P” value in the series with glucosamine-6-phosphate [2] is less than 1e-05 s⁻¹. For the same variant, the “self-cleavage kobs at 2500 uM GlcN6P” value with glucosamine-6-phosphate [4] is less than 1e-05 s⁻¹.
Take AUAAAAGCGCCAGAACUACAGAAAUGUAGUUGACGAGGAGGAUGUUUAUCGAAUUUUCGGCGGCUGCCUCCAAA: in the series with glucosamine-6-phosphate [1], the “self-cleavage kobs at 40 uM GlcN6P” value was less than 1e-05 s⁻¹. In addition, the “self-cleavage kobs at 160 uM GlcN6P” value with glucosamine-6-phosphate [2] was less than 1e-05 s⁻¹. The “self-cleavage kobs at 640 uM GlcN6P” value with glucosamine-6-phosphate [3] is less than 1e-05 s⁻¹. Besides, the “self-cleavage kobs at 10000 uM GlcN6P” value in the series with glucosamine-6-phosphate [5] is less than 1e-05 s⁻¹.
